Measurements as given in patent publication US20090298765A1 (Takeda / Millennium, published 2009).
Non-standard residues stand in square brackets, D forms with d. No end group written: not given here. *: point of attachment. GuAmb = 4-guanidinomethylbenzoyl, N=C(N)NCc1ccc(C(=O)*)cc1; Phe(4-F) = N[C@@H](Cc1ccc(F)cc1)C(=O)O; Cyclohexanecarbonyl = O=C(C1CCCCC1)*; Arg(Me) = CNC(=N)NCCC[C@H](N)C(=O)O; 4Pal = N[C@@H](Cc1ccncc1)C(=O)O; d3Pal = N[C@H](Cc1cccnc1)C(=O)O; d4Pal = N[C@H](Cc1ccncc1)C(=O)O; Cha = N[C@@H](CC1CCCCC1)C(=O)O; amidino = N=C(N)*; azaGly = NNC(=O)O

B1: des(1-2)-[AzaGly7,Arg(Me)9]MS10 (peptide)
peptide: WNSF[azaGly]LR(Me)F-NH2
modifications: N-terminus assumed
SMILES: CNC(=N)NCCC[C@H](NC(=O)[C@H](CC(C)C)NC(=O)NNC(=O)[C@H](Cc1ccccc1)NC(=O)[C@H](CO)NC(=O)[C@H](CC(N)=O)NC(=O)[C@@H](N)Cc1c[nH]c2ccccc12)C(=O)N[C@@H](Cc1ccccc1)C(N)=O
notes: also called Compound No. 271
B2: des(1)-[D-Pya(3)2,AzaGly7,Arg(Me)9]MS10 (peptide)
peptide: [d3Pal]WNSF[azaGly]L[Arg(Me)]F-NH2
notes: also called Compound No. 289; [D-Pya(3)2,AzaGly7,Arg(Me)9]MS10-(2-10)
B3: des(1-5)-GuAmb-[Arg(Me)9]MS10 (peptide)
peptide: GuAmb-FGL[Arg(Me)]F-NH2
SMILES: CNC(=N)NCCC[C@H](NC(=O)[C@H](CC(C)C)NC(=O)CNC(=O)[C@H](Cc1ccccc1)NC(=O)c1ccc(CNC(=N)N)cc1)C(=O)N[C@@H](Cc1ccccc1)C(N)=O
B4: des(1-5)-GuAmb-[AzaGly7,Arg(Me)9]MS10 (peptide)
peptide: GuAmb-F[azaGly]L[Arg(Me)]F-NH2
SMILES: CNC(=N)NCCC[C@H](NC(=O)[C@H](CC(C)C)NC(=O)NNC(=O)[C@H](Cc1ccccc1)NC(=O)c1ccc(CNC(=N)N)cc1)C(=O)N[C@@H](Cc1ccccc1)C(N)=O
B5: Endo-Phe5a-[D-Tyr1,Phe3,AzaGly7,Arg(Me)9]MS10 (peptide)
peptide: [dY]NFNSFF[azaGly]L[Arg(Me)]F-NH2
modifications: N-terminus assumed
SMILES: CNC(=N)NCCC[C@H](NC(=O)[C@H](CC(C)C)NC(=O)NNC(=O)[C@H](Cc1ccccc1)NC(=O)[C@H](Cc1ccccc1)NC(=O)[C@H](CO)NC(=O)[C@H](CC(N)=O)NC(=O)[C@H](Cc1ccccc1)NC(=O)[C@H](CC(N)=O)NC(=O)[C@H](N)Cc1ccc(O)cc1)C(=O)N[C@@H](Cc1ccccc1)C(N)=O
notes: printed in three-letter code: D-Tyr-Asn-Phe-Asn-Ser-Phe-Phe-AzaGly-Leu-Arg(Me)-Phe-NH2; also called Compound No. 270
B6: des(1-2)-Acetyl-[AzaGly7,Arg(Me)9]MS10 (peptide)
peptide: Ac-WNSF[azaGly]L[Arg(Me)]F-NH2
SMILES: CNC(=N)NCCC[C@H](NC(=O)[C@H](CC(C)C)NC(=O)NNC(=O)[C@H](Cc1ccccc1)NC(=O)[C@H](CO)NC(=O)[C@H](CC(N)=O)NC(=O)[C@H](Cc1c[nH]c2ccccc12)NC(C)=O)C(=O)N[C@@H](Cc1ccccc1)C(N)=O
notes: also called Compound No. 272
B7: [D-Pya(3)1,D-Asn2,Cha3,AzaGly7,Arg(Me)9]MS10 (peptide)
peptide: [d3Pal][dN][Cha]NSF[azaGly]L[Arg(Me)]F-NH2
modifications: N-terminus assumed
SMILES: CNC(=N)NCCC[C@H](NC(=O)[C@H](CC(C)C)NC(=O)NNC(=O)[C@H](Cc1ccccc1)NC(=O)[C@H](CO)NC(=O)[C@H](CC(N)=O)NC(=O)[C@H](CC1CCCCC1)NC(=O)[C@@H](CC(N)=O)NC(=O)[C@H](N)Cc1cccnc1)C(=O)N[C@@H](Cc1ccccc1)C(N)=O
notes: also called Compound No. 290
B8: [D-Pya(3)1,D-Tyr2,Cha3,AzaGly7,Arg(Me)9]MS10 (peptide)
peptide: [d3Pal][dY][Cha]NSF[azaGly]L[Arg(Me)]F-NH2
modifications: N-terminus assumed
SMILES: CNC(=N)NCCC[C@H](NC(=O)[C@H](CC(C)C)NC(=O)NNC(=O)[C@H](Cc1ccccc1)NC(=O)[C@H](CO)NC(=O)[C@H](CC(N)=O)NC(=O)[C@H](CC1CCCCC1)NC(=O)[C@@H](Cc1ccc(O)cc1)NC(=O)[C@H](N)Cc1cccnc1)C(=O)N[C@@H](Cc1ccccc1)C(N)=O
notes: also called Compound No. 291
B9: [D-Tyr1,D-Asn2,Pya(4)3,AzaGly7,Arg(Me)9,Phe(4F)10]MS10 (peptide)
peptide: [dY][dN][4Pal]NSF[azaGly]L[Arg(Me)][Phe(4-F)]-NH2
modifications: N-terminus assumed
SMILES: CNC(=N)NCCC[C@H](NC(=O)[C@H](CC(C)C)NC(=O)NNC(=O)[C@H](Cc1ccccc1)NC(=O)[C@H](CO)NC(=O)[C@H](CC(N)=O)NC(=O)[C@H](Cc1ccncc1)NC(=O)[C@@H](CC(N)=O)NC(=O)[C@H](N)Cc1ccc(O)cc1)C(=O)N[C@@H](Cc1ccc(F)cc1)C(N)=O
notes: also called Compound No. 317
B10: [D-Pya(3)1,AzaGly7,Arg(Me)9]MS10 (peptide)
peptide: [d3Pal]NWNSF[azaGly]L[Arg(Me)]F-NH2
modifications: N-terminus assumed
SMILES: CNC(=N)NCCC[C@H](NC(=O)[C@H](CC(C)C)NC(=O)NNC(=O)[C@H](Cc1ccccc1)NC(=O)[C@H](CO)NC(=O)[C@H](CC(N)=O)NC(=O)[C@H](Cc1c[nH]c2ccccc12)NC(=O)[C@H](CC(N)=O)NC(=O)[C@H](N)Cc1cccnc1)C(=O)N[C@@H](Cc1ccccc1)C(N)=O
notes: also called Compound No. 258
B11: des(1-2)-Amidino-[AzaGly7,Arg(Me)9]MS10 (peptide)
peptide: amidino-WNSF[azaGly]L[Arg(Me)]F-NH2
SMILES: CNC(=N)NCCC[C@H](NC(=O)[C@H](CC(C)C)NC(=O)NNC(=O)[C@H](Cc1ccccc1)NC(=O)[C@H](CO)NC(=O)[C@H](CC(N)=O)NC(=O)[C@H](Cc1c[nH]c2ccccc12)NC(=N)N)C(=O)N[C@@H](Cc1ccccc1)C(N)=O
notes: also called Compound No. 273
B12: [D-Pya(4)1,D-Asn2,Cha3,AzaGly7,Arg(Me)9]MS10 (peptide)
peptide: [d4Pal][dN][Cha]NSF[azaGly]L[Arg(Me)]F-NH2
modifications: N-terminus assumed
SMILES: CNC(=N)NCCC[C@H](NC(=O)[C@H](CC(C)C)NC(=O)NNC(=O)[C@H](Cc1ccccc1)NC(=O)[C@H](CO)NC(=O)[C@H](CC(N)=O)NC(=O)[C@H](CC1CCCCC1)NC(=O)[C@@H](CC(N)=O)NC(=O)[C@H](N)Cc1ccncc1)C(=O)N[C@@H](Cc1ccccc1)C(N)=O
notes: also called Compound No. 306

Experiments:
[1] = molecular target: T1, human OT7T175 (metastin receptor) (human, UniProt Q969F8 1-398); experiment: cell-based or functional assay
T1 sequence (Q969F8 whole entry L364H): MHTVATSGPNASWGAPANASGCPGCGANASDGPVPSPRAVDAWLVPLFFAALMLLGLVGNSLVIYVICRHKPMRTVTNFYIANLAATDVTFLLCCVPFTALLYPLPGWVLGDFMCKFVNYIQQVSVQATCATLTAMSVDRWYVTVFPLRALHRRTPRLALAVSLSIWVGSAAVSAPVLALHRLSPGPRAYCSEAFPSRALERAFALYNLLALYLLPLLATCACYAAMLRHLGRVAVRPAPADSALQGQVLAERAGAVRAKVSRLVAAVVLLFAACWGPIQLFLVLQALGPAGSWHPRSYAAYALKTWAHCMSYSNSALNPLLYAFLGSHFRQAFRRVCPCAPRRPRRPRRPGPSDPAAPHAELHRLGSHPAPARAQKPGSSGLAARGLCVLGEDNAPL

[2] = molecular target: T1, human OT7T175 (metastin receptor); experiment: competition with Cy-5 metastin (40-54) on hOT7T175-CHO cells, FMAT
Experimental: hOT7T175-Expressed CHO cells were cultured in MEM-α medium (nucleic acid-free) containing 10% dialyzed serum. The medium was removed and the adhered cells were washed with PBS. Then, PBS containing 5 mM EDTA was added and the cells were scraped from a flask with a cell scraper.
To each well of a 96-Well Black Clear Bottom Microplate (Applied Biosystems, Inc.), 10 μL of assay buffer containing 1% dimethylsulfoxide was added to examine total binding, 10 μL of 10 μM non-labeled peptide (having the same amino acid sequence as that of labeled one) solution diluted with assay buffer to examine non-specific binding, and 10 μL of a test compound diluted with assay buffer to examine a binding inhibition activity of the test compound, and furthermore, 90 μL each of the cell suspension was dispensed to each well. […] Specific binding is calculated as non-specific binding subtracted from total binding. The binding inhibition activity of a test compound is shown by a ratio of the value obtained by subtracting a measured value in presence of a test compound from the total binding to the specific binding.

[3] = molecular target: T1, human OT7T175 (metastin receptor); experiment: cell-based or functional assay; remark: listed apart in the source

Row | Binder | Ca ion level-increasing activity (FLIPR, 40 s) [1] | IC50 [2] | Ca ion level-increasing activity (FLIPR) [3]
1 | [dY]NWNSFGL[Arg(Me)]F-NH2 (also: bond 6-7 CONH replaced by CH2NH, also called Compound No. 308) [[6Ψ7,CH2NH,D-Tyr1,Arg(Me)9]MS10] | 2.6 EC50/MS10 EC50 | 350 nM | 
2 | B1 |  | 120 nM | 1 x Metastin (1-54)
3 | Cyclohexanecarbonyl-NSF[azaGly]L[Arg(Me)]F-NH2 (also called Compound No. 278) [des(1-3)-Cyclohexanecarbonyl-[AzaGly7,Arg(Me)9]MS10] |  | 110 nM | 2 x Metastin (1-54)
4 | Y[dN][4Pal]NSF[azaGly]L[Arg(Me)]F-NH2 (also called Compound No. 304) [[D-Asn2,Pya(4)3,AzaGly7,Arg(Me)9]MS10] |  | 5 nM | 3 x Metastin (1-54)
5 | B2 |  | 8.4 nM | 1 x Metastin (1-54)
6 | {4‑imidazoleacetyl}-NSF[azaGly]L[Arg(Me)]F-NH2 (also called Compound No. 323) [des(1-3)-4-Imidazoleacetyl-[AzaGly7,Arg(Me)9]MS10] |  | 280 nM | 1 x Metastin (1-54)
7 | B3 | 5 EC50/MS10 EC50 |  | 1 x Metastin (1-54)
8 | B4 | 4.9 EC50/MS10 EC50 |  | 2 x Metastin (1-54)
9 | YNWNSXGLRF (D-Tyr1; Pya(2)6; Arg(Me)9; C-terminal amide, also called Compound No. 281) [[D-Tyr1,Pya(2)6,Arg(Me)9]MS10] |  | 230 nM | 0.5 x Metastin (1-54)
10 | B5 |  | 15 nM | 1 x Metastin (1-54)
11 | [dY]INSF[azaGly]L[Arg(Me)]F-NH2 (also called Compound No. 240) [des(1)-[D-Tyr2,Ile3,AzaGly7,Arg(Me)9]MS10] | 4.9 EC50/MS10 EC50 | 17 nM | 
12 | [dY]SNSF[azaGly]L[Arg(Me)]F-NH2 (also called Compound No. 239) [des(1)-[D-Tyr2,Ser3,AzaGly7,Arg(Me)9]MS10] | 6.7 EC50/MS10 EC50 | 120 nM | 
13 | [dY]NWNSFGL[Arg(Me)]F-NH2 (also: bond 6-7 CONH replaced by NHCO (reversed)) [[6Ψ7,NHCO,D-Tyr1,Arg(Me)9]MS10] | 3.1 EC50/MS10 EC50 |  | 3 x Metastin (1-54)
14 | Y[dN]WNSFGLRF-NH2 [[D-Asn2]MS10] | 2.7 EC50/MS10 EC50 |  | 
15 | [dY]N[d4Pal]NSF[azaGly]L[Arg(Me)]F-NH2 (also called Compound No. 302) [[D-Tyr1,D-Pya(4)3,AzaGly7,Arg(Me)9]MS10] |  | 7.7 nM | 2 x Metastin (1-54)
16 | B6 |  | 540 nM | 2 x Metastin (1-54)
17 | [dY]NWNSF[azaGly]L[Arg(Me)][Phe(4-F)]-NH2 (also called Compound No. 318) [[D-Tyr1,AzaGly7,Arg(Me)9,Phe(4F)10]MS10] | 2.9 EC50/MS10 EC50 | 0.99 nM | 
18 | B7 |  | 1.4 nM | 1 x Metastin (1-54)
19 | B8 |  | 0.41 nM | 2 x Metastin (1-54)
20 | B9 |  | 2.1 nM | 1 x Metastin (1-54)
21 | B10 |  | 90 nM | 2 x Metastin (1-54)
22 | B11 |  | 300 nM | 5 x Metastin (1-54)
23 | B12 |  | 4.4 nM | 2 x Metastin (1-54)
24 | [dY]NWNSFGLRF (not fully specified (C-terminus); also: C-terminal thioamide (CSNH2)) [[10Ψ,CSNH,D-Tyr1]MS10] | 1.5 EC50/MS10 EC50 |  | 
25 | {n‑hexanoyl}-NSF[azaGly]L[Arg(Me)]F-NH2 (also called Compound No. 277) [des(1-3)-n-Hexanoyl-[AzaGly7,Arg(Me)9]MS10] |  | 54 nM | 2 x Metastin (1-54)
26 | {4‑(3-indolyl)butyryl}-NSF[azaGly]L[Arg(Me)]F-NH2 (also called Compound No. 267) [des(1-3)-4-(3-Indolyl)butyryl-[AzaGly7,Arg(Me)9]MS10] |  | 360 nM | 2 x Metastin (1-54)
27 | YNWNSFGL[Arg(Me)]F-NH2 (also called Compound No. 82) [[Arg(Me)9]MS10] | 1 EC50/MS10 EC50 | 4.1 nM | 
